Consider 24 molecules from patent US8969060B2, “Modified glucose dehydrogenase” (Ikeda Food Research Co., Ltd., priority 2011, dated 2015).

B1: V338M: modified GLD: SEQ ID NO: 1 with substitution V338M (protein, listed as Aspergillus terreus)
chain: MLGKLSFLSALSLAVAAPLSNSTSAKYDYIVIGGGTSGLAVANRLSEDPNVNVLILEAGGSVWNNPNVTNVDGYGLAFGSDIDWQYQSVNQPYGGNLSQVLRAGKALGGTSTINGMAYTRAEDVQIDAWETIGNTGWTWKNLFPYYRKSENFTVPTKSQTSLGASYEAGAHGHEGPLDVAFTQIESNNLTTYLNRTFQGMGLPWTEDVNGGKMRGFNLYPSTVNLEEYVREDAARAYYWPYKSRPNLHVLLNTFANRIVWDGEAHDGHITASGVEITSRNGTVRVINAEKEVIVSAGALKSPAILELSGIGNPSVLDKHNIPVKVNLPTVGENLQDQMNSHMDASGNTSISGTKAVSYPDVYDVFGDEAESVAKQIRANLKQYAADTAKANGNIMKAADLERLFEVQYDLIFKGRVPIAEVLNYPGSATSVFAEFWALLPFARGSVHIGSSNPAEFPVINPNYFMLDWDAKSYVAVAKYIRRSFESYPLSSIVKESTPGYDVIPRNASEQSWKEWVFDKNYRSNFHPVGTAAMMPREIGGVVDERLNVYGTTNVRVVDASVLPFQVCGHLVSTLYAVAERAADLIKADAGRR
modifications: SIGNAL (1)..(19)
B2: G352R: modified GLD: SEQ ID NO: 1 with substitution G352R (protein, listed as Aspergillus terreus)
chain: B1 chain with M338V, G352R
modifications: SIGNAL (1)..(19)
B3: G352K: modified GLD: SEQ ID NO: 1 with substitution G352K (protein, listed as Aspergillus terreus)
chain: B1 chain with M338V, G352K
modifications: SIGNAL (1)..(19)
B4: G352S: modified GLD: SEQ ID NO: 1 with substitution G352S (protein, listed as Aspergillus terreus)
chain: B1 chain with M338V, G352S
modifications: SIGNAL (1)..(19)
B5: G352Q: modified GLD: SEQ ID NO: 1 with substitution G352Q (protein, listed as Aspergillus terreus)
chain: B1 chain with M338V, G352Q
modifications: SIGNAL (1)..(19)
B6: G352I: modified GLD: SEQ ID NO: 1 with substitution G352I (protein, listed as Aspergillus terreus)
chain: B1 chain with M338V, G352I
modifications: SIGNAL (1)..(19)
B7: K354F: modified GLD: SEQ ID NO: 1 with substitution K354F (protein, listed as Aspergillus terreus)
chain: B1 chain with M338V, K354F
modifications: SIGNAL (1)..(19)
B8: G352W: modified GLD: SEQ ID NO: 1 with substitution G352W (protein, listed as Aspergillus terreus)
chain: B1 chain with M338V, G352W
modifications: SIGNAL (1)..(19)
B9: K354N: modified GLD: SEQ ID NO: 1 with substitution K354N (protein, listed as Aspergillus terreus)
chain: B1 chain with M338V, K354N
modifications: SIGNAL (1)..(19)
B10: G352P: modified GLD: SEQ ID NO: 1 with substitution G352P (protein, listed as Aspergillus terreus)
chain: B1 chain with M338V, G352P
modifications: SIGNAL (1)..(19)
B11: G352F: modified GLD: SEQ ID NO: 1 with substitution G352F (protein, listed as Aspergillus terreus)
chain: B1 chain with M338V, G352F
modifications: SIGNAL (1)..(19)
B12: K354E: modified GLD: SEQ ID NO: 1 with substitution K354E (protein, listed as Aspergillus terreus)
chain: B1 chain with M338V, K354E
modifications: SIGNAL (1)..(19)
B13: K354A: modified GLD: SEQ ID NO: 1 with substitution K354A (protein, listed as Aspergillus terreus)
chain: B1 chain with M338V, K354A
modifications: SIGNAL (1)..(19)
B14: G352L: modified GLD: SEQ ID NO: 1 with substitution G352L (protein, listed as Aspergillus terreus)
chain: B1 chain with M338V, G352L
modifications: SIGNAL (1)..(19)
B15: K354D: modified GLD: SEQ ID NO: 1 with substitution K354D (protein, listed as Aspergillus terreus)
chain: B1 chain with M338V, K354D
modifications: SIGNAL (1)..(19)
B16: G352T: modified GLD: SEQ ID NO: 1 with substitution G352T (protein, listed as Aspergillus terreus)
chain: B1 chain with M338V, G352T
modifications: SIGNAL (1)..(19)
B17: G352Y: modified GLD: SEQ ID NO: 1 with substitution G352Y (protein, listed as Aspergillus terreus)
chain: B1 chain with M338V, G352Y
modifications: SIGNAL (1)..(19)
B18: K354M: modified GLD: SEQ ID NO: 1 with substitution K354M (protein, listed as Aspergillus terreus)
chain: B1 chain with M338V, K354M
modifications: SIGNAL (1)..(19)
B19: G352M: modified GLD: SEQ ID NO: 1 with substitution G352M (protein, listed as Aspergillus terreus)
chain: B1 chain with M338V, G352M
modifications: SIGNAL (1)..(19)
B20: K354H: modified GLD: SEQ ID NO: 1 with substitution K354H (protein, listed as Aspergillus terreus)
chain: B1 chain with M338V, K354H
modifications: SIGNAL (1)..(19)
B21: K354C: modified GLD: SEQ ID NO: 1 with substitution K354C (protein, listed as Aspergillus terreus)
chain: B1 chain with M338V, K354C
modifications: SIGNAL (1)..(19)
B22: G352N: modified GLD: SEQ ID NO: 1 with substitution G352N (protein, listed as Aspergillus terreus)
chain: B1 chain with M338V, G352N
modifications: SIGNAL (1)..(19)
B23: G352V: modified GLD: SEQ ID NO: 1 with substitution G352V (protein, listed as Aspergillus terreus)
chain: B1 chain with M338V, G352V
modifications: SIGNAL (1)..(19)
B24: K354G: modified GLD: SEQ ID NO: 1 with substitution K354G (protein, listed as Aspergillus terreus)
chain: B1 chain with M338V, K354G
modifications: SIGNAL (1)..(19)

Numbering of substitutions follows the chain as printed. Names and notes keep the numbering of the source. Values joined by “and” are separate entries in the source; they are usually repeats but may differ in a detail not shown here. Equal entries are not always repeated.

The nature of the first data set: Relative enzymatic activity of GLD (DCIP/1-m-PMS, plate reader, yeast culture supernatant) with 1,10-phenanthroline present. Format: biochemical. The settings on record: site-specific mutants, inhibitor final concentration 1 mM. A digest of the protocol: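 Yeast transformants grown in YPD, 30° C., 24 h; diluted culture supernatant assayed in phosphate buffer pH 7.0 with D-glucose, DCIP and 1-m-PMS, DCIP absorbance change at 600 nm. Relative activity (%) = activity with 1 mM 1,10-phenanthroline (final, replacing methanol) divided by activity without it.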
Regarding B1, the “Relative Activity [%] 1,10-Phenanthroline” value came out at 73.6%.
As for B2, the “Relative Activity [%] 1,10-Phenanthroline” value worked out at 80.3%.
Still for that read-out and setting: for B3 the value was 82.5%; for B4, 62.9%; for B5, 90.4%.
The same measure, in the same setting: for B6 the value was 85.5%; for B7, 47.8%.
With B8, the “Relative Activity [%] 1,10-Phenanthroline” value is 81.2%.
B9: the “Relative Activity [%] 1,10-Phenanthroline” value turned out to be 61.9%.
For the molecule B10, the “Relative Activity [%] 1,10-Phenanthroline” value is given as 89.8%.
Take B11: the “Relative Activity [%] 1,10-Phenanthroline” value is 83.8%.
For the molecule B12, the “Relative Activity [%] 1,10-Phenanthroline” value worked out at 60.0%.
On the same count and under the same terms, for B13 the value was 66.2%.
Turning to B14, the “Relative Activity [%] 1,10-Phenanthroline” value was found to be 80.7%.
Turning to B15, the “Relative Activity [%] 1,10-Phenanthroline” value was found to be 70.8%.
With B16, the “Relative Activity [%] 1,10-Phenanthroline” value is 85.4%.
On to B17, for which the “Relative Activity [%] 1,10-Phenanthroline” value was found to be 92.4%.
For the molecule B18, the “Relative Activity [%] 1,10-Phenanthroline” value is recorded as 53.5%.
Same read-out and setting: the result for B19 reads 74.7%.
The same measure, in the same setting: the result for B20 reads 52.6% and 51.0%; that for B21, 62.6%; that for B22, 80.5%.
As to B23, the “Relative Activity [%] 1,10-Phenanthroline” value was determined as 87.0%.
The same measure, in the same setting: the result for B24 reads 60.8%.

The nature of a further data set: Relative enzymatic activity of GLD (DCIP/1-m-PMS, plate reader, yeast culture supernatant) with proflavin hydrochloride present. The following applies: site-specific mutants, inhibitor final concentration 1 mM. Type of data set: biochemical. A digest of the protocol:
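Culture supernatant diluted and mixed with reagent of phosphate buffer pH 7.0, 1.0 M D-glucose, 3 mM DCIP, 3 mM 1-m-PMS and methanol (0.1:1:0.14:0.2:0.06). DCIP absorbance decrease at 600 nm followed; proflavin hydrochloride in methanol replaced methanol at 1 mM final. Activity expressed as % of inhibitor-free blank.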
Turning to B1, the “Relative Activity [%] Proflavin hydrochloride” value is 55.0%.
Same read-out and setting: for B2 the value was 68.1%.
For the molecule B3, the “Relative Activity [%] Proflavin hydrochloride” value was determined as 32.7%.
With B4, the “Relative Activity [%] Proflavin hydrochloride” value amounted to 38.7%.
Consider B5, for which the “Relative Activity [%] Proflavin hydrochloride” value was found to be 56.4%.
Same read-out and setting: for B6 the value was 60.9%; for B7, 16.0%.
Still for that read-out and setting: the result for B8 reads 48.1%; that for B9, 15.1%.
With B10, the “Relative Activity [%] Proflavin hydrochloride” value is 49.1%.
On to B11, for which the “Relative Activity [%] Proflavin hydrochloride” value was determined as 56.9%.
The same measure, in the same setting: the result for B12 reads 20.7%.
Same read-out and setting: for B13 the value was 8.9%.
Same read-out and setting: for B14 the value was 43.7%; for B15, 11.6%; for B16, 44.1%.
B17: the “Relative Activity [%] Proflavin hydrochloride” value was 52.8%.
Same read-out and setting: the result for B18 reads 10.7%; that for B19, 45.7%; that for B20, 11.1% and 11.6%.
The same measure, in the same setting: for B21 the value was 14.4%; for B22, 55.8%.
The same measure, in the same setting: the result for B23 reads 41.6%; that for B24, 23.0%.
